Read-outs that look alike come from different tables or passages of the source.

What all share (assay): EMSA
One data set addresses STK19 3KA (Homo sapiens, UniProt P49842 1-254, K186A;K190A;K201A).
The next data set concerns the target STK19 25-C (Homo sapiens, UniProt P49842 25-254).
For data set [1], the target named is T1, STK19 (TWH19) WT full-length (Homo sapiens, UniProt P49842 1-254).
Data set [2] addresses T1, STK19 (TWH19) WT full-length. This is another data set of the same source.
For data set [3] the target is unchanged. The source holds these as a separate data set.

T1 sequence (P49842 whole entry): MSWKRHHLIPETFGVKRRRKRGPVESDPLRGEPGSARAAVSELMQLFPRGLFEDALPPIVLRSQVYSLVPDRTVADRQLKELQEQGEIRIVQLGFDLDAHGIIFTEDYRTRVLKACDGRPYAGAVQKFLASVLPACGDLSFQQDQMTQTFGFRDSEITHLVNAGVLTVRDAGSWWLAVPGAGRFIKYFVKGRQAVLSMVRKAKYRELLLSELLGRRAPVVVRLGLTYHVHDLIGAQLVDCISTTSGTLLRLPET
Sequence of STK19 3KA (P49842 whole entry K186A/K190A/K201A): as the sequence (P49842 whole entry) above, with K186A, K190A, K201A counted along it
Sequence of STK19 25-C (P49842 25-254): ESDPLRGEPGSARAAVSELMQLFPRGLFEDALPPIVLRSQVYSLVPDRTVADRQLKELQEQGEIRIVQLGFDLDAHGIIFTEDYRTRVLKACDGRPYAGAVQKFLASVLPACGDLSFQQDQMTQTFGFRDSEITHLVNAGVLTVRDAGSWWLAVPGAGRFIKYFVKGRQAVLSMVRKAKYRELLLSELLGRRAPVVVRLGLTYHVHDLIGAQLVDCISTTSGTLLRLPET

B1: DNA1 (dsDNA)
DNA 1: CTGTACTTCCAGGGAATGGAAAGCGACCCTCTGCC
DNA 2: GGCAGAGGGTCGCTTTCCATTCCCTGGAAGTACAG
Usually Kd stands for the equilibrium constant for the complex coming apart. A low value points to a tighter complex. In the case of B1, the binding result in the data set with STK19 3KA was “no binding”. This molecule gave a Kd with STK19 25-C of 3.8 µM.

B2: DNA1 UVB-irradiated (dsDNA)
DNA 1: CTGTACTTCCAGGGAATGGAAAGCGACCCTCTGCC
DNA 2: GGCAGAGGGTCGCTTTCCATTCCCTGGAAGTACAG
modifications: UVB irradiated, lesions undefined
On to B2, for which the binding result in data set [1] is “binds”.

B3: RNA-30 bp-AT (dsRNA)
RNA 1: AAAAAAAAAAAAAAAAAAAAAAAAAAAAAA
RNA 2: UUUUUUUUUUUUUUUUUUUUUUUUUUUUUU
Consider B3, for which the binding result in data set [2] is listed as “binds”.

B4: DNA-30 bp-AT (dsDNA)
DNA 1: AAAAAAAAAAAAAAAAAAAAAAAAAAAAAA
DNA 2: TTTTTTTTTTTTTTTTTTTTTTTTTTTTTT
On to B4, for which the binding result in data set [3] is “binds”.

Values taken from PMC10806857.
